Data published in the domain aggregation screens of Martell et al. (2025).

Assay: soluble fraction after stress (log2 fold change); higher = more stays soluble; pooled small domains, quantitative proteomics
Settings: stress: 75 degC
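Also: 20 min heating vs room temperature control held 20 min.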

Sequence	soluble fraction (log2)
HMPMDYFELFNIPRNANRETIKKILDQEYEKYRARVVSPVLEIRHEAELMLVEISKAKQVLLG	-1.08
HMPMHPEDLKKLVSIEMPFGKHKGRIIADLPGNYLNWFAREGFPPGEIGRLLQLMQEIDHNGLSDLLKPLR	-0.521
HMPMNISDIIKQAREELGMTQEDLAERLEVSRQAVSKWELGASVPSPENLRLLEELLGVELPAP	-0.198
HMPNFDPSYILDFGDVIQLQLVGQKNQILEIPILRDGSVNLPDIGKIFLSGMSLEEATKIIKDTYSA	-0.931
HMPNGEAYQRFTYENDILEGRFEEWDSLGTDIVKGDYTAGVRHKKWLYYDSEGRRDKFVFLDMDSI	0.116
HMPNNNDIVLDRVSFGYHEKEVLHGIDMTIREGTVNALVGPSGSGKSTIAKLIAGLWDVDGGSISF	0.555
HMPNPSAGRVHIDALLPFDRVEVTDMQGSLLLDHSFSPRRAVDLDLNARGTLLYTLWSKGHLLGKGRVVR	-0.606
HMPNQLLELVEMEIRDLLNEYEFPGDDTPIIQGSALKALEDPMGPWGDKIMDLMDAVDSYIPDPE	-0.686
HMPPAIKTLMFMIQNKSLLKSPKQLAVVQQQLKKIKGVRDVLILLEEGKVMLKVNKHETIHEASIIRLLGG	-1.87
HMPPALTELLSVRTNASGTIDYLLPDRSAGLRVENGSKYSGMVPDSIYRLVAIYEIKDAKEPSAYIYTI	-0.0495
HMPPFDDILAEYYEPLYRHVRRMVVSHDDAKDVMQEAMLRIFQGLDGLKDPSAVRTWVWRIATNEALRH	-0.0914
HMPPPVDLDKKGYKLRGIVLEDGRSAAFVFVPAEKRVVVLRENASGPVRLLETGMRRIRLQTPEGAGYLEL	-1.36
HMPPQPATQNTKAQVMQLAREKELMAGEGRGANVEALEKFANEHGISLRGMTEEQAEQLVKLLMEYTP	-0.239
HMPPRFVPATGADLRRWLDVSGLTAEAAGDLLGVSGARFRQWLSRYRSAPLPDPVRALLVALLRP	-0.00746
HMPPSRFNELSMWFQEQLTEAGLKVDSGALKMLIEWLGQDQARLPSIIEVLVSTYGTKKKLTVDEIEPFL	-0.384
HMPPTSADGIEKYLASGMIRGVGPVYAKKLVSAFGDKVFDIIEAAPHQLQEVEGIGRVRAASILAAWAEQ	-0.549
HMPQLEDLEPLDSSGMVRRDGPHLVLAVGRHRGRHLEEVRDSDPSYLHWLLSPKGIEDIQAKEDIKTYLNL	-0.0235
HMPQLVGDVDGDGRVSVTDGEWIRASYGALPWYAGWRAAADLDGSRKIDVVDLELLRTKMGN	-0.334
HMPRIYSITINPEKIRTVIGPGGKVIKDITAKTGTKIEIDDSGKVDIFSPDEEHARMAVEIINTLTEE	0.0671
HMPRKYFPFYFTFRETAQTMPPRLRAVFYEAIIEYGTTGKEPTLPKSIAGYWPLVKPTLDSAKAHYDAG	-3.62
HMPRNEIQRSVLNELVQWIKNNLAKKLTMQALSRFSGYSEWHLFRLFRHYFNMSPMAYIRQQRMQ	-0.366
HMPRPRIHSVVRGDTLYGISRQYGVAMSKLASLNGLKSPYRIMVGRSLRLPSAIEAERDRTAREVVQ	-1.53
HMPRVLSSYTLTLRHQPTAEAVALVRTLLSPAGSVEVKEDGRTLVVRDELAALSRIVGALRSFDH	-0.851
HMPRVSIEKIKKVVELLKHNPDYTYSKIGNIVGIGRKTVSGINNGKLYTDLVEELGINEFPI	-0.459
HMPRYQQIARQLKTAIEHGELKPGARLPSSRTWSQELGISRSTVESAYTELVAQGWLERRGQAGTFVSAQL	-1.04
HMPRYSGMFAAWLHKALARMGKSMSDSARSAFTERVELDYSSANNELQKLSLLVGDRKVITEADVMRAIG	-0.86

Sequence	soluble fraction (log2)
HMPSALGDKIRAARKALKLSLEDLAEKVSSSKSYMWELENRDEPNPGADLLMRIAAALNVTTEHLLGP	-0.28
HMPSDLQATLRAVQGMLQGVEGVDARLAGQRILLEGDSADARARERAAAIAGIFPGVVIDFVG	-0.263
HMPSEAVQNIIGNVKSKRRVATIGQARGLASNVIKEGKFDNVSNTAMVNRLIDLGIISNSIGYQ	-0.0616
HMPSEQGANKARDIIFRHHMKVDVWVGSWENARNYAEQAIKQGVKVIISRGGTAALLRHSLDTAIIKVR	0.14
HMPSGLFEPIKKSELSIESIDLLKDQIRAFKQADIRITFGFLLDLITKGENPAYVNASKLFEQAWER	0.141
HMPSPSTLAKVDPFLLVTNADSLLMARPDDSELRAAIITAHINLAKTNNSVDHYKEVLKIEPQNALANYN	0.17
HMPSPTPEQVLKAFTDAAMQKNTVEELKQAFAKAWKMLEGTPEQHKAQDVYNIRRDELEGAA	0.376
HMPSSIEGIEKYLGSGMIRGIGAVYAKRLVKQFGKDVFDIIEETPERLREVEGIGPIRAARIISGWADQ	-0.363
HMPTITSPMVGTFYRAPSPGAAPFIEVGDTVKKGQVIGIIEAMKLLNEVEADKDGVVQAFAAENGEL	-0.335
HMPTLNIVDGHIAASDGVRILSIHNVTGRRYATSSKLPAGIYIVVLMPAKAETPLTVKVIVEA	-1.42
HMPTMTDIPIKIIRSRRRTLAIEVREGGEVIVRAPLYSRKAEIDAFVKAHENWIITKYNLMITKQN	-3.51
HMPTPRVPMSKQRQILQLLQDGHLSTREIAAALHISKTSVGDIAKAARLAGLDWEAASKLSDEELSARIYK	-0.36
HMPTSPKANFLKELPQEFTRKQAVTIGDKLNIKERTVDNYLAKLEQAGYLVKPKAGYYQKIKS	-0.0924
HMPTTTFENLPDAKKKTIIAALLKEFSQSPLSKAQVAPIVKESQIARGAFYKYFVDLTDAYTYLYRQ	-0.0519
HMPTVLKQGSTGQEVKELQQALSKLGYRVTVTGEFDTATHYGVVRFQRKHRLTIDGIVGPQTLSKIRAHQK	-2.56
HMPVAPTYALTVKTDPPSANVRLLNSPTPYQPGVRLPSGNYDIEVTQSGYATRKESVRIADRDVALNIAL	0.265
HMPVASNRDVNLDIGERVFVQEWAPNRTARVQYRGSPWEARLAPGAPAAAGEHRVSAVEGNWLVLEPA	-0.139
HMPVEFVKISIKPGHPWENQFVRDIVSLPDLLMVLILRGEERIIPNGNTKILVGDKIVLSALSPG	-2.2
HMPVEHVWHIAENGQTSGPYSKARMGRMAQEGQLTRDTHVWTPGQDGWMRAGDVTELAQLFT	0.0383
HMPVFSLTPRELEILEWMSTPNTYRQIAAQLSVSEETVRSHAKNILEKMRQPNRAQAVLAAVKMGLIKL	-1.57
HMPVISGQDLRVLIRDTGRERDQGISFLDDGTMVVVEDARRLIGQEVTATVTRVHQTQTGRIVFAHLSN	-1.25
HMPVPSPAEQTATQLANIERHTGITVDGWTRAIAEAGAAKHGEIVAWLKQQGLTHGNANALAHAVRARQSG	0.581
HMPVQSNRDALLDIGQTLQVQAWDAQGSARVSYRGSDWTAEFRGPGAAAPGLHRIIAVQGNRLIVEPA	0.342
HMPVRIYEISKKLGLENKEVLATAKSLGIAAAKVPSSSLDKITAEYLEEEILKSHPEVAARLK	0.142
HMPVYEEEVPAALDGQRLDRVVAMVTGLSRSEVGALLAAGAVTVDGTTPAKGSVRLAAGSIVSVTVS	-0.357
HMQAATGVVTASVLNIRQGPGTNYTKVGSLLKGAQVEIVGQNGAWSKIRLKSGITGWVNSSYLKTST	-1.84

Sequence	soluble fraction (log2)
HMQAGPEDIIRAKLKTAMPEAQIISIRPTPAGLYQVNAKGYESVFVTADGRYLFQGDLLEIQGDRIVNL	-0.186
HMQAKNGTVTGSVVNVRGGAGTQYAVKGKASRGTKVTILGQQSSWLNVRLDNGVTGWIHADYVQISE	0.592
HMQAPHLALSPREFQVLQGLLAGDALDIIAERLHLSAKTVSNHQTLIRQKLGVGNAVELLRYAQLHRL	-2.49
HMQAPIFMNETDGKWYFREKYLNDNHEIAYRVHPEGYDQMEDALRNSVNALNEFAAEMKELRKQV	-0.0803
HMQAPVVNHDLIKSFERQWREIKATAKGKVRSVNLSDARSILQSFLNTLQKGPGTDSLISSVQNELSLIA	-0.17
HMQARDQNVDEGKALLEKEFSRLALENLDRDKLANAVNYPTRDDMYAAIGAGDLRVGQVLHQAQQLF	0.226
HMQASTGNVNTETLNLRKEASTSADILKLLSQGDEVEIVSESNGWYKVKYKDTEGFVSKEYITVN	1.02
HMQATETFSLIVPMSSAGNRLDVVLSELLPNFSRKKIQDAIKNGDATLNGKAPKIRDKVYGGENITITLIL	-2.55
HMQAVDPLELRAGDFVVHEQHGIGRYVEMVQRTIGGITREYLVIEYAPAKRGQPNDRVFVPTDTLEQVS	-0.654
HMQAVKQIKVERGMTLEKIAQSEFGDSTRWGEIVEVNNLRAPYISDDPTETRDGVLKPGSNLLIPIP	-0.0397
HMQDEAQLSMSNKYIFEGNSIVKDNFIEAEKKYRLGVSAKPNNAVGSYNLANAYYNSKLYDEAMLRLL	0.379
HMQDEREEIAVEDVVGMPLWQARKVIADQGFRVLDDGAGDIVIAQMPSGGGKLIEGGQVMLYTYTD	0.687
HMQDFEEILKNAKIEDFKHTQTGEDLKVLKIEDKIEDFKGFNAYLVKNQIAYYSKFARGFVVKNIEKLQGV	0.202
HMQDFEQNLFDGKSIYDRMLSKFSLHNVDVKQLVAHFKRKDTEQFFADIGRGLITSAQMLGFLQT	-0.0166
HMQDLVAVPALTGLTENDAINKAKANNLIAVVSEYKTENSVEPGKVLEQDPESSTEVKKGTIIKLVVS	0.756
HMQDQVTLIVQVNGKLRGQISISTDATKELIEQTALANENVQKFVDGQSIKKIIIVPGRLVNIV	-0.939
HMQDRDKNVPAGKELLDNEIARLNMSLKQVEQFALPRYNLKTLEDLYSGIGSGDIRLNHLINFLQSKLI	0.338
HMQDREIHIHAGREVLEKELSRLSLHLKNTNLQEYAARFNVKTAEDILAGIGAGDIRPAHVVNLIADKL	-0.0928
HMQDSSGENNPQSKLTQQQVDLLMKDLKETNVEFDKLAEKYNVSIKTIRNVNTGIAWRKNDITYPIREP	-0.407
HMQDTQAEEGETLLDALRRIHPESSTGTLRRMLTQGRVQLDGDSVHAAKTVLSAGQRVEVVAR	-0.143
HMQDTTLTSQILRVPSSVNINDLANVLKSLAGKNTVVAPYKAANTIIITGYAPNVRRVLSLANELIPRLDV	-1.18
HMQEAGLITQRIREMREKENWTQEYMAEQLGMSENGYAKIERGESNLSLKRLQQIADIFEVESAELLK	0.00448
HMQEDKSKYLFQRGTAITVLRPAGIVRIGKERVDAVSNGSYIDRGVAVRVIEVEGTRVVVEPVPE	0.0187
HMQEEMIRGDIKLNTVMQTVHLAVGTETERNWQPVETTAKEFELLKLLMENPGVTLKKEYLFHMLI	-0.101
HMQEESISWKEFLELDIIGDKKKRLKVYDLFHLGYGNAKTLFKRLNMVGISREMIEKELENEGY	-1.39
